Substitutions are numbered along the chain they refer to. Numbered stars: 1 amine (or outer) side, 2 acyl side, 3 side chain; on linkers, the order of the positions; unused ones are H or OH. Bridge positions count the residues as written; N and C are the ends. Side chains are listed from the residue outwards. Ends that are not written are not given here. * marks the point of attachment. C20 diacid = O=C(O)CCCCCCCCCCCCCCCCCCC(=O)*; γGlu = O=C(O)[C@H](CCC(=O)[*:2])N[*:1]; AEEA = NCCOCCOCC(=O)O
B1: N^α1-[(4S)-4-carboxy-4-(19-carboxynonadecanoylamino)butanoyl]-[Arg17,Pro21,Pro27]-h-amylin (peptide)
peptide: KCNTATCATQRLANFLRHSSPNFGAIPSSTNVGSNTY
modifications: C20 diacid-gGlu on the alpha amino group of the N-terminal residue (Lys 1); disulfide bridge between the two Cys residues; C-terminal amide
notes: analogue of human amylin; also called compound 21
B2: N^α1-[2-[2-[2-[[2-[2-[2-[[(4S)-4-carboxy-4-(19-carboxynonadecanoylamino)butanoyl]amino]ethoxy]ethoxy]acetyl]amino]ethoxy]ethoxy]acetyl]-[Glu14,Arg17,Pro21,Pro27 … (peptide)
peptide: B1 peptide with N14E
modifications: C20 diacid-gGlu-2xOEG on the alpha amino group of the N-terminal residue (Lys 1); disulfide bridge between the two Cys residues; C-terminal amide
notes: analogue of human amylin; also called compound 19
B3: N^α1-[(4S)-4-carboxy-4-(19-carboxynonadecanoylamino)butanoyl]-[Arg17,Pro21,Pro27,Arg34]-h-amylin (peptide)
peptide: B1 peptide with S34R
modifications: C20 diacid-gGlu on the alpha amino group of the N-terminal residue (Lys 1); disulfide bridge between the two Cys residues; C-terminal amide
notes: analogue of human amylin; also called compound 39
B4: N^α1-[(4S)-4-carboxy-4-(19-carboxynonadecanoylamino)butanoyl]-[Arg17,Pro21,Pro27,Glu35]-h-amylin (peptide)
peptide: B1 peptide with N35E
modifications: C20 diacid-gGlu on the alpha amino group of the N-terminal residue (Lys 1); disulfide bridge between the two Cys residues; C-terminal amide
notes: analogue of human amylin; also called compound 23
B5: N^α1-[(4S)-4-carboxy-4-(19-carboxynonadecanoylamino)butanoyl]-[Arg17,Pro21,Pro27,His34]-h-amylin (peptide)
peptide: B1 peptide with S34H
modifications: C20 diacid-gGlu on the alpha amino group of the N-terminal residue (Lys 1); disulfide bridge between the two Cys residues; C-terminal amide
notes: analogue of human amylin; also called compound 40
B6: N^α1-[(4S)-4-carboxy-4-(19-carboxynonadecanoylamino)butanoyl]-[Arg17,Pro21,Pro27,Lys35]-h-amylin (peptide)
peptide: B1 peptide with N35K
modifications: C20 diacid-gGlu on the alpha amino group of the N-terminal residue (Lys 1); disulfide bridge between the two Cys residues; C-terminal amide
notes: analogue of human amylin; also called compound 34
B7: N^α1-[(4S)-4-carboxy-4-(19-carboxynonadecanoylamino)butanoyl]-[Arg17,Pro21,Pro27,Pro31,Glu35]-h-amylin (peptide)
peptide: {C20 diacid-γGlu}-KCNTATCATQRLANFLRHSSPNFGAIPSSTPVGSETY-NH2
modifications: disulfide 2-7 (inferred)
notes: analogue of human amylin; also called compound 28
B8: N^α1-[(4S)-4-carboxy-4-(19-carboxynonadecanoylamino)butanoyl]-[Arg17,Pro21,Pro27,Pro34,Glu35]-h-amylin (peptide)
peptide: {C20 diacid-γGlu}-KCNTATCATQRLANFLRHSSPNFGAIPSSTNVGPETY-NH2
modifications: disulfide 2-7 (inferred)
notes: analogue of human amylin; also called compound 29
B9: N^α1-[(4S)-4-carboxy-4-(19-carboxynonadecanoylamino)butanoyl]-[Glu14,Arg17,Pro21,Pro26]-h-amylin (peptide)
peptide: {C20 diacid-γGlu}-KCNTATCATQRLAEFLRHSSPNFGAPLSSTNVGSNTY-NH2
modifications: disulfide 2-7 (inferred)
notes: analogue of human amylin; also called compound 7
B10: N^α1-[(4S)-4-carboxy-4-(19-carboxynonadecanoylamino)butanoyl]-[Glu14,Arg17,Pro21,Pro27,Arg35]-h-amylin (peptide)
peptide: {C20 diacid-γGlu}-KCNTATCATQRLAEFLRHSSPNFGAIPSSTNVGSRTY-NH2
modifications: disulfide 2-7 (inferred)
notes: analogue of human amylin; also called compound 16
B11: N^α1-[(4S)-4-carboxy-4-(19-carboxynonadecanoylamino)butanoyl]-[Glu14,Arg17,Pro21,Pro27,His34]-h-amylin (peptide)
peptide: {C20 diacid-γGlu}-KCNTATCATQRLAEFLRHSSPNFGAIPSSTNVGHNTY-NH2
modifications: disulfide 2-7 (inferred)
notes: analogue of human amylin; also called compound 17
B12: N^α1-[(4S)-4-carboxy-4-(19-carboxynonadecanoylamino)butanoyl]-[Glu14,Arg17,Pro21,Pro27,Pro31]-h-amylin (peptide)
peptide: {C20 diacid-γGlu}-KCNTATCATQRLAEFLRHSSPNFGAIPSSTPVGSNTY-NH2
modifications: disulfide 2-7 (inferred)
notes: analogue of human amylin; also called compound 31
B13: N^α1-[(4S)-4-carboxy-4-(19-carboxynonadecanoylamino)butanoyl]-[Glu14,Arg17,Pro21,Pro27,Pro34]-h-amylin (peptide)
peptide: {C20 diacid-γGlu}-KCNTATCATQRLAEFLRHSSPNFGAIPSSTNVGPNTY-NH2
modifications: disulfide 2-7 (inferred)
notes: analogue of human amylin; also called compound 32
B14: N^α1-[(4S)-4-carboxy-4-(19-carboxynonadecanoylamino)butanoyl]-[His14,Arg17,Pro21,Pro27,Glu35]-h-amylin (peptide)
peptide: {C20 diacid-γGlu}-KCNTATCATQRLAHFLRHSSPNFGAIPSSTNVGSETY-NH2
modifications: disulfide 2-7 (inferred)
notes: analogue of human amylin; also called compound 30
B15: N^α1N^α1-[(4S)-4-carboxy-4-(19-carboxynonadecanoylamino)butanoyl]-[Glu14,Arg17,Pro21,Pro27,Glu35]-h-amylin (peptide)
peptide: {C20 diacid-γGlu}-KCNTATCATQRLAEFLRHSSPNFGAIPSSTNVGSETY-NH2
modifications: disulfide 2-7 (inferred)
notes: analogue of human amylin; the name is printed with N^α1 twice; also called compound 22
B16: N^ε1-[2-[2-[2-[[2-[2-[2-[[(4S)-4-carboxy-4-(19-carboxynonadecanoylamino)butanoyl]amino]ethoxy]ethoxy]acetyl]amino]ethoxy]ethoxy]acetyl]-[Arg17,Pro21,Pro27,Glu35 … (peptide)
peptide: K([AEEA-AEEA-γGlu-C20 diacid])CNTATCATQRLANFLRHSSPNFGAIPSSTNVGSETY-NH2
modifications: disulfide 2-7 (inferred)
notes: analogue of human amylin; also called compound 25
B17: N^ε1-[2-[2-[2-[[(4S)-4-carboxy-4-(19-carboxynonadecanoylamino)butanoyl]amino]ethoxy]ethoxy]acetyl]-[Arg17,Pro21,Pro27,Glu35]-h-amylin (peptide)
peptide: K([AEEA-γGlu-C20 diacid])CNTATCATQRLANFLRHSSPNFGAIPSSTNVGSETY-NH2
modifications: disulfide 2-7 (inferred)
notes: analogue of human amylin; also called compound 26
B18: N^ε1-[2-[2-[2-[[(4S)-4-carboxy-4-(19-carboxynonadecanoylamino)butanoyl]amino]ethoxy]ethoxy]acetyl]-[Arg17,Pro21,Pro27,Pro31]-h-amylin (peptide)
peptide: K([AEEA-γGlu-C20 diacid])CNTATCATQRLANFLRHSSPNFGAIPSSTPVGSNTY-NH2
modifications: disulfide 2-7 (inferred)
notes: analogue of human amylin; also called compound 49
B19: N^ε1-[2-[2-[2-[[(4S)-4-carboxy-4-(19-carboxynonadecanoylamino)butanoyl]amino]ethoxy]ethoxy]acetyl]-[Arg17,Pro21,Pro27,Pro34]-h-amylin (peptide)
peptide: K([AEEA-γGlu-C20 diacid])CNTATCATQRLANFLRHSSPNFGAIPSSTNVGPNTY-NH2
modifications: disulfide 2-7 (inferred)
notes: analogue of human amylin; also called compound 50

molecular target: T1, human calcitonin receptor (human, UniProt P30988 25-474); assay: IC50 on human calcitonin receptor divided by IC50 on human amylin receptor (SPA competition)
T1 construct: whole, on cells; membranes of stably transfected BHK cells (Assay VII); also called hCTR; hCT
T1 sequence (looked up): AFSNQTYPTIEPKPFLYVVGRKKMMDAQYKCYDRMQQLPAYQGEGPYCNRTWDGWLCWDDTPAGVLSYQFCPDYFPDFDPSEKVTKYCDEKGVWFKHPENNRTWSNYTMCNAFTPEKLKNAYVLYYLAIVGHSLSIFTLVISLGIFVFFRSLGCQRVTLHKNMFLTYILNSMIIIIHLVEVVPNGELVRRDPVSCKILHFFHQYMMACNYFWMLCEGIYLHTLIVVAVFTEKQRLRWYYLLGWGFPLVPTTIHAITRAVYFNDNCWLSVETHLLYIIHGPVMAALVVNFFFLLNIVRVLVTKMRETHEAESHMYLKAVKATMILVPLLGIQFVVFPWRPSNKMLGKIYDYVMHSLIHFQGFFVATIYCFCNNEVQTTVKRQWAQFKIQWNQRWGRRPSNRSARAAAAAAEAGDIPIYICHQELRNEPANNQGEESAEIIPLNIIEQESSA
Procedure: The resulting pellet was resuspended, homogenized and centrifuged (20.000 rpm, 15 min) in a buffer containing 20 mM Na-HEPES and 0.1 mM EDTA (pH 7.4, buffer 2). The resulting pellet was resuspended in buffer 2 and protein concentration was measured (BCA protein Assay, Pierce). The homogenate was kept cold during the whole procedure. The membranes were kept at −80° C. until use. The assay was performed in a 384 well Optiplate (PerkinElmer) in a total volume of 40 ul. Membranes were mixed with SPA beads. Final concentration of membranes 35 ng/μL final and SPA beads was 0.05 mg/well. Test-compounds were dissolved in DMSO and further diluted in assay buffer (50 mM Hepes, pH 7.4, 1 mM CaCl2, 5 mM MgCl₂, 0.1% OA and 0.02% Tween20). […] The final mixture was incubated with shaking at 400 rpm for 120 min at 25° C. prior to centrifugation (1500 rpm, 10 min). Samples were analyzed on TopCounter™ (Packard). The IC₅₀ was calculated using (one site binding competition analysis) GraphPad Prism5 as a measure of receptor affinity.
Membranes were prepared in the following way; the cells were rinsed with PBS and incubated with Versene for approximately 5 min before harvesting. The cells were flushed with PBS and the cell-suspension was centrifuged for 5 min at 1000 rpm. Cells were homogenized (Ultrathurrax) in a buffer containing 20 mM Na-HEPES and 10 mM EDTA (pH 7.4) and centrifuged at 20.000 rpm for 15 min. The resulting pellet was resuspended, homogenized and centrifuged (20.000 rpm, 15 min) in a buffer containing 20 mM Na-HEPES and 0.1 mM EDTA (pH 7.4, buffer 2). The resulting pellet was resuspended in buffer 2 and protein concentration was measured (BCA protein Assay, Pierce). The homogenate was kept cold during the whole procedure. The membranes were kept at −80° C. until use. Assay was performed in a 384 well Optiplate (PerkinElmer) in a total volume of 40 ul. Membranes were mixed with SPA beads.

Binder | Ratio hCT/hAmylin binding
B1 | 24.4
B2 | 36.7
B3 | 29
B4 | 25
B5 | 31.1
B6 | 64.4
B7 | 20.5
B8 | 13.9
B9 | 16.5
B10 | 19.1
B11 | 12.5
B12 | 16
B13 | 10.9
B14 | 23.6
B15 | 12.3
B16 | 56.5
B17 | 47.5
B18 | 10.8
B19 | 36

molecular target: T2, rat calcitonin receptor (rat, UniProt P32214 25-516); assay: IC50 on rat calcitonin receptor divided by IC50 on rat amylin receptor (SPA competition)
T2 construct: whole, on cells; membranes of transiently transfected BHK tk'ts 13 cells (Assay VIII); also called rCTR; rat calcitonin (a) receptor
T2 sequence (looked up): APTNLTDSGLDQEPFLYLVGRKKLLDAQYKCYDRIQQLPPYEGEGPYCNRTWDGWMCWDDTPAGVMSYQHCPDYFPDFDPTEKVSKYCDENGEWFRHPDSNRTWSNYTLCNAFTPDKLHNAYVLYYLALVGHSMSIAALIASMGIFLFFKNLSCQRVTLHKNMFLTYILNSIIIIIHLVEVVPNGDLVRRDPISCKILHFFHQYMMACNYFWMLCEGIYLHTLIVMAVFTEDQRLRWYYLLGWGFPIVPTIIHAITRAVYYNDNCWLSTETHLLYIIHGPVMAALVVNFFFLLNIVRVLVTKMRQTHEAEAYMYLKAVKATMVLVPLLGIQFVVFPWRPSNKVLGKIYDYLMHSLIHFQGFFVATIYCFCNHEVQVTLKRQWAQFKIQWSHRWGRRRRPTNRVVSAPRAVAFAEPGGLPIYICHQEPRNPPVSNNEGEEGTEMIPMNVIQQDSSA

Binder | Ratio rCT/rAmylin binding
B1 | 18.8
B2 | 93.6
B3 | 54.5
B4 | 71.3
B5 | 46.2
B6 | 52
B7 | 44.9
B8 | 67
B9 | 42
B10 | 45.6
B11 | 35.9
B12 | 42.8
B13 | 34
B14 | 36.1
B15 | 28.5
B16 | 37.7
B17 | 309
B18 | 47.7
B19 | 81.7

molecular target: T3, rat amylin receptor (rat calcitonin receptor + rat RAMP 3) (rat, UniProt P32214 25-516; Q9JJ73 23-147); assay: SPA competition with 125I-rat amylin, membranes of BHK cells with rat calcitonin receptor + rat RAMP3 (Assay VI)
T3 construct: whole, on cells; membranes of transiently transfected BHK tk'ts 13 cells (Assay VI); also called rAmylin-R; rat amylin 3(a) receptor
T3 sequence (looked up) 1: T2 sequence (looked up)
T3 sequence (looked up) 2: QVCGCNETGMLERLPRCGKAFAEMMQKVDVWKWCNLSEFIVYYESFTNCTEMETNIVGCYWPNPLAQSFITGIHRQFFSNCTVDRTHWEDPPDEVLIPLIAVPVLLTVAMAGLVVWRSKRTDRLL

Binder | IC50
B1 | 1.48 nM
B2 | 1.02 nM
B3 | 1.77 nM
B4 | 1.12 nM
B5 | 1.5 nM
B6 | 1.72 nM
B7 | 1.22 nM
B8 | 0.322 nM
B9 | 1.12 nM
B10 | 1.21 nM
B11 | 2.71 nM
B12 | 0.619 nM
B13 | 0.176 nM
B14 | 3.14 nM
B15 | 2.19 nM
B16 | 3.48 nM
B17 | 0.491 nM
B18 | 1.08 nM
B19 | 0.069 nM

molecular target: T2, rat calcitonin receptor; assay: SPA competition with 125I-calcitonin, membranes of BHK cells with rat calcitonin receptor (Assay VIII)

Binder | IC50
B1 | 27.9 nM
B2 | 95.6 nM
B3 | 96.4 nM
B4 | 79.9 nM
B5 | 69.2 nM
B6 | 89.2 nM
B7 | 54.9 nM
B8 | 21.6 nM
B9 | 47.2 nM
B10 | 55.2 nM
B11 | 97.2 nM
B12 | 26.5 nM
B13 | 5.98 nM
B14 | 114 nM
B15 | 62.5 nM
B16 | 131 nM
B17 | 152 nM
B18 | 51.4 nM
B19 | 5.63 nM

— US20140087995A1 (published 2014)
